± gives the uncertainty stated by the source.
Test: protein stability index of a GFP-peptide fusion (yeast GPS) (PSI 1-4); higher = more stable; sorted into four equal gates, so the index is relative within each strain
In short: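 Plasmids in a pooled yeast library fused tiled 17-residue yeast protein peptides downstream of GFP and also expressed Cherry. Mid-log cultures grown without leucine were sorted into four equal gates by GFP/Cherry fluorescence ratio. Each gate's plasmids were PCR-amplified and Illumina-sequenced, and reads were matched to strains by barcodes. The protein stability index is derived by multiplying each gate's read frequency by its gate number and summing the results.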

Sequence | protein stability index (doa10∆) | protein stability index (pdr5∆) | protein stability index (san1∆) | protein stability index (ubr1∆)
TFRIFHNHDTGCDENDS [YDL088C/ASM4] | 2.92 ± 0.1 | 3.09 ± 0.14 | 3.27 ± 0.1 | 3.11 ± 0.1
TFTQLVSSSLYERRFGP [PUP3] | 2.79 ± 0.12 | 2.94 ± 0.16 | 2.73 ± 0.12 | 2.94 ± 0.092
TGEKPIITGSTSTSSSN [MED8] | 2.79 ± 0.048 | 2.52 ± 0.04 | 2.57 ± 0.044 | 2.37 ± 0.033
TGEWFSSYEEFLERFDF [ITC1] | 2.99 ± 0.098 | 1.99 ± 0.06 | 2.09 ± 0.12 | 2 ± 0.15
TGGTRTKTPGPGGQAAL [RPS14A] | 3.24 ± 0.04 | 3.11 ± 0.036 | 3.05 ± 0.034 | 3.149 ± 0.028
TGNNNNIATQQNMQQSL [GAL11] | 2.06 ± 0.048 | 2.49 ± 0.077 | 2.55 ± 0.11 | 2.59 ± 0.052
TGWITQSTPVLLNHGER [RPN1] | 2.61 ± 0.061 | 2.23 ± 0.044 | 1.88 ± 0.056 | 2.53 ± 0.037
THFLLNIYDQLRNKLIE [RRP6] | 2.62 ± 0.044 | 2.69 ± 0.062 | 2.38 ± 0.051 | 2.8 ± 0.033
THIAESAKEIAKASGCD [MCD1] | 3.16 ± 0.14 | 3.4 ± 0.19 | 3.15 ± 0.049 | 3.34 ± 0.075
THIPQTNLKNHPAYLFK [YLR018C/POM34] | 2.84 ± 0.059 | 2.83 ± 0.04 | 2.64 ± 0.054 | 2.75 ± 0.029
THRNKDGTGVRVIVAGT [FAS1] | 2.16 ± 0.26 | 1.59 ± 0.082 | 1.62 ± 0.21 | 1.6 ± 0.15
TIGAIFLNHAFDYMNRY [CDC53] | 2.04 ± 0.065 | 2.1 ± 0.066 | 1.78 ± 0.076 | 1.89 ± 0.046
TINISLSFSWAILLIIN [NUT1] | 1.35 ± 0.06 | 1.61 ± 0.054 | 1.93 ± 0.078 | 2.43 ± 0.044
TINLDRFMKGRRSKQLI [RPC82] | 2.09 ± 0.1 | 2.64 ± 0.078 | 1.79 ± 0.17 | 2.74 ± 0.078
TIQSDLNLSLHKLDLAK [SMC2] | 2.81 ± 0.049 | 2.79 ± 0.035 | 3.01 ± 0.038 | 2.828 ± 0.028
TIQYDPPETKLPYPTYW [SNF5] | 3.02 ± 0.049 | 2.93 ± 0.042 | 2.98 ± 0.039 | 2.94 ± 0.039
TISEKEQDILDLIAEQV [SSN2] | 3.08 ± 0.14 | 3.25 ± 0.15 | 3.05 ± 0.12 | 2.97 ± 0.13
TIVLSLNVKCTRNPDAP [RPC40] | 1.66 ± 0.091 | 2.14 ± 0.18 | 2.91 ± 0.13 | 
TKDLLSKSPSEWQDIIH [CSE2] | 3.1 ± 0.082 | 2.99 ± 0.077 | 3.07 ± 0.075 | 3.17 ± 0.049
TKFKVRGSSSLYTLVIN [RPL38] | 2.08 ± 0.074 | 1.32 ± 0.09 | 1.55 ± 0.13 | 2.13 ± 0.09
TKFLAKNGVIPEESKGS [SWP82] | 3.19 ± 0.096 | 3.16 ± 0.11 | 2.98 ± 0.15 | 3.45 ± 0.13
TKIFNSVAEVFQKAQGS [YCG1] | 1.89 ± 0.12 | 1.55 ± 0.23 |  | 1.5 ± 0.07
TKIKPFIKVVNYNHLLP [RPL27A] | 2.49 ± 0.072 | 2.35 ± 0.094 | 2.77 ± 0.093 | 2.64 ± 0.11
TKKISNFNSSLHKRQQF [YJL039C/NUP192] | 2.73 ± 0.13 | 2.79 ± 0.12 | 1.4 ± 0.18 | 1.6 ± 0.11
TKLKNAVQNESVSSPIE [QCR2] | 3.05 ± 0.11 | 3.1 ± 0.084 | 3.25 ± 0.094 | 3.05 ± 0.067

Sequence | protein stability index (doa10∆) | protein stability index (pdr5∆) | protein stability index (san1∆) | protein stability index (ubr1∆)
TKLRAFVYNKVNETEAI [YGR119C/NUP57] | 2.3 ± 0.084 | 2.69 ± 0.064 | 2.68 ± 0.061 | 2.59 ± 0.059
TKPSDLTIKDIVLGVKD [RPO21] | 2.51 ± 0.085 | 2.15 ± 0.1 | 1.95 ± 0.15 | 2.83 ± 0.044
TKPSLRKASCIWLLSYI [ECM29] | 1.75 ± 0.054 | 1.88 ± 0.051 | 1.86 ± 0.077 | 1.86 ± 0.038
TKQASSFSFLNRADGTG [YLR335W/NUP2] |  |  |  | 1.45 ± 0.2
TKRLGTPESVKPANASH [RGR1] | 2.37 ± 0.08 | 2.63 ± 0.077 | 2.26 ± 0.11 | 2.76 ± 0.095
TKRWYKNAGLGFKTPKT [RPS11A] | 3.32 ± 0.096 | 3.42 ± 0.12 | 3.05 ± 0.11 | 3.5 ± 0.082
TKTEALLSDVVSTSSGA [YJL041W/NSP1] | 2.73 ± 0.13 | 3.1 ± 0.2 | 2.75 ± 0.15 | 
TKTVKRASKALIERYYP [RPS17A] |  | 2.57 ± 0.21 |  | 
TKYFEPTSTENNKKVVG [ECM29] | 2.87 ± 0.14 | 3.19 ± 0.17 | 2.82 ± 0.13 | 2.97 ± 0.062
TLEQKVNLENPIPIAVL [FAS1] | 1.35 ± 0.048 | 1.4 ± 0.041 | 1.57 ± 0.095 | 1.39 ± 0.028
TLGNALRYVIMKNPDVE [RPC19] | 2.93 ± 0.091 | 2.73 ± 0.059 | 2.46 ± 0.077 | 2.8 ± 0.055
TLLIAIRGSNRDLKPSN [YML103C/NUP188] | 1.92 ± 0.18 | 2.41 ± 0.13 | 2.52 ± 0.098 | 2.8 ± 0.087
TLLVIRRLHKVLRPFLL [SNF2] | 1.26 ± 0.12 | 1.34 ± 0.093 | 1.34 ± 0.16 | 1.09 ± 0.08
TLSFNFSQKANKTKAVD [YOR098C/NUP1] | 2.03 ± 0.085 | 1.55 ± 0.059 | 1.84 ± 0.1 | 1.71 ± 0.057
TLSKTTDSSALTYDRLE [PRE9] | 3.16 ± 0.1 | 2.99 ± 0.13 | 2.89 ± 0.1 | 2.94 ± 0.058
TLSVSHGINLQNKKNLK [SSN2] | 2.7 ± 0.062 | 2.62 ± 0.054 | 2.65 ± 0.077 | 2.78 ± 0.063
TLTDILEDELYHTNPGH [RPN4] | 3.04 ± 0.055 | 3.25 ± 0.049 | 3.1 ± 0.064 | 3.21 ± 0.043
TLYSVKSKEDMKQLKFF [SNU114] | 3.28 ± 0.17 | 3.33 ± 0.13 | 3.17 ± 0.083 | 3.1 ± 0.087
TNAKIPQFDSTQPKSSS [SSN3] | 3.03 ± 0.042 | 3.01 ± 0.044 | 3.09 ± 0.039 | 2.98 ± 0.032
TNELWARLAILKERAKN [YGR119C/NUP57] | 3.26 ± 0.13 | 2.75 ± 0.2 |  | 3.58 ± 0.13
TNGGLFGSGTQNNNTLG [YGR119C/NUP57] | 3.25 ± 0.11 | 2.91 ± 0.091 | 3.02 ± 0.069 | 3.08 ± 0.069
TNKDIICQIISSTITGD [RPL5] | 2.6 ± 0.055 | 2.13 ± 0.057 | 2.94 ± 0.1 | 2.24 ± 0.055
TNKSKRPSITEAMMLKE [MED1] | 2.91 ± 0.12 | 3.03 ± 0.087 | 2.89 ± 0.094 | 3.03 ± 0.084
TNLKMKRKWSYVLYAKI [RRP43] | 1.71 ± 0.058 | 2.37 ± 0.042 | 1.75 ± 0.16 | 2.09 ± 0.15
TNLQRNVDRLYKLNVRS [NUT2] | 3.66 ± 0.19 | 3.62 ± 0.2 | 3.01 ± 0.18 | 3.49 ± 0.073
